Assay results published in US20090291081A1 (AbbVie / Abbott, published 2009).
Substitutions are numbered along the chain they refer to. Values joined by “and” are separate entries in the source; they are usually repeats but may differ in a detail not shown here. Equal values may be shown once. Read-outs that look alike come from different tables or passages of the source.

Experiments:
[1] = biological target: T1, human IL-1α (human, UniProt P01583 113-271); test: cell-based or functional assay
T1 sequence (looked up): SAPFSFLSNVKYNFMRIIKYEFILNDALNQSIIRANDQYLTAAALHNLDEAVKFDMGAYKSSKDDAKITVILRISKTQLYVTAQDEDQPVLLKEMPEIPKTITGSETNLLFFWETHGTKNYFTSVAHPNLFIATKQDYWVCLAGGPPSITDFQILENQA

[2] = biological target: T1, human IL-1α; test: cell-based or functional assay; remark: listed apart in the source
[3] = biological target: T2, human IL-1β (human, UniProt P01584 117-269); test: cell-based or functional assay
[4] = biological target: T1, human IL-1α; test: cell-based or functional assay; remark: listed apart in the source
[5] = biological target: T2, human IL-1β; test: cell-based or functional assay; remark: listed apart in the source
[6] = biological target: T1, human IL-1α; test: Receptor Binding Assay, IgG; value beside the ABT1 clone
[7] = biological target: T2, human IL-1β; test: Receptor Binding Assay, IgG; value beside the ABT2 clone
[8] = biological target: T2, human IL-1β; test: cell-based or functional assay; remark: listed apart in the source
[9] = biological target: T2, human IL-1β; test: cell-based or functional assay; remark: listed apart in the source
[10] = biological target: T1, human IL-1α; test: cell-based or functional assay; remark: listed apart in the source
[11] = biological target: T1, human IL-1α; test: cell-based or functional assay; remark: listed apart in the source
[12] = biological target: T1, human IL-1α; test: BIAcore kinetic analysis of the dAb
[13] = biological target: T1, human IL-1α; test: BIAcore kinetic analysis of the dAb; remark: listed apart in the source
[14] = biological target: T1, human IL-1α; test: method not given
[15] = biological target: T1, human IL-1α; test: BIAcore kinetic analysis of the dAb; remark: listed apart in the source
[16] = biological target: T1, human IL-1α; test: BIAcore, IL-1α coated chip, dAb flowed over
[17] = biological target: T1, human IL-1α; test: cell-based or functional assay; remark: listed apart in the source
[18] = biological target: T1, human IL-1α; test: BIAcore kinetic analysis of the dAb; remark: listed apart in the source

B1: ABT1-141-25 (other)
VL: DIQMTQSPSSLSASVGDRVTITCRASQWIQKQLAWYQQKPGKAPKLLIYSSSYLQSGVPSRFSGSGSGTDFTLTISSLQPEDFATYYCQQHLRVPMTFGQGTKVEIKR
[1]
  MRC5 ND50: 5 nM

B2: ABT1-141-76 (other)
VL: B1 VL with S26N, Y53H
[1]
  MRC5 ND50: 1 nM

B3: ABT1-141-47 (other)
VL: B1 VL with S26N, Y53H, E81Q
[1]
  MRC5 ND50: 1 nM

B4: ABT2-65-166/ABT1-95-A3 huIgG1/K wt (bispecific antibody, V domains shown)
VH: EVQLLESGGGLVQPGGSLRLSCAASGFTFEDYQMGWVRQAPGKGLEWVSSISAMGGRTYYADSVKGRFTISRDNSKNTLYLQMNSLRAEDTAVYYCAQNLVRLGRSRWMFDYWGQGTLVTVSS
VL: DIQMTQSPSSLSASVGDRVTITCRASKPGVRNMRWYQQKPGKAPKLLIYSVSYLEPGVPSRFSGSGSGTDFTLTISSLQPEDFATYHCLQGYRWPPTFGQGTKVEIKR
notes: hu IgG1/K wt; also called 1-95-A3 / 2-65-166
[2]
  IL-1α IC50: 0.026 nM and 0.0178 nM
[3]
  IL-1β IC50: 0.17 nM
[4]
  MRC5 IL-1α: 0.017 nM
[5]
  MRC5 IL-1β: 0.15 nM
[6]
  IC50: 0.083 nM
[7]
  IC50: 0.709 nM

B5: ABT2-65-166 (other)
VH: B4 VH
[8]
  MRC5 ND50: 4 nM

B6: ABT2-65-17 (other)
VH: B4 VH with A23V, G56N, N74D
[8]
  MRC5 ND50: 2 nM

B7: IgG pairing ABT1-95-A2 with ABT2-65-166 (bispecific antibody, V domains shown)
VH: B4 VH
VL: B4 VL with A25I, S26L, K27Q, G29P, V30G, M33L, V51K, Y53F, L89Q, P96V
notes: IgG; also called 1-95-A2 / 2-65-166
[4]
  MRC5 IL-1α: 0.08 nM
[5]
  MRC5 IL-1β: 0.121 nM
[6]
  IC50: 0.067 nM
[7]
  IC50: 0.073 nM

B8: ABT2-65-166/ABT1-95-A6 hu IgG1/K wt (bispecific antibody, V domains shown)
VH: B4 VH
VL: B4 VL with S50A, V51K, L89K, P96V, T97Q
notes: hu IgG1/K wt; also called 1-95-A6 / 2-65-166
[3]
  IL-1β IC50: 0.32 nM
[4]
  MRC5 IL-1α: 0.019 nM
[5]
  MRC5 IL-1β: 0.207 nM
[6]
  IC50: 0.108 nM
[7]
  IC50: 0.537 nM

B9: ABT2-108/ABT1-122-511 hu IgG1/K wt (bispecific antibody, V domains shown)
VH: EVQLLESGGGLVQPGGSLRLSCAASGFTFAEYTMMWVRQAPGKGLEWVSRIGQDGKNTYYADSVKGRFTISRDNSKNTLYLQMNSLRAEDTAVYYCAKYTGRVGVHHLFDYWGQGTLVTSS
VL: DIQMTQSPSSLSASVGDRVTITCRASQPIWTELNWYQQKPGKAPKLLIYGSSSLQRGVPSRFSGSGSGTDFTLTISSLQPEDFATYYCKQFAYFPATFGQGTKVEIKR
[2]
  IL-1α IC50: 40 nM
[3]
  IL-1β IC50: 8 nM
[9]
  MRC-5 IL-1β neutralization potency: ~8 nM
[4]
  MRC5 IL-1α: 80 nM
[5]
  MRC5 IL-1β: 8 nM

B10: ABT1-6-23 (other)
VH: EVQLLESGGGLVQPGGSLRLSCAASGFTFVRYDMAWVRQAPGKGLEWVSSIYKSGALTSYADSVKGRFTISRDNSKNTLYLQMNSLRAEDTAVYYCAKGWASFDYWGQGTLVTVSS
notes: dAb, VH, to IL-1α; also called dAb ABT1-6-23
[10]
  MRC5 ND10: 3 nM
  MRC5 ND50: 30 nM
[11]
  MRC5 ND50: 0.03 µM
[12]
  Kd: 61 nM
  koff: 0.012 s⁻¹
  kon: 200000 M⁻¹ s⁻¹

B11: ABT1-6 (other)
VH: B10 VH with V30G, R31A, A35Q, Y52N
[11]
  MRC5 ND50: 15 µM

B12: ABT1-6-3 (other)
VH: B10 VH with V30G, R31A, A35Q
[11]
  MRC5 ND50: 0.08 µM

B13: ABT1-6-15 (other)
VH: B10 VH with Y52N
[11]
  MRC5 ND50: 2 µM

B14: ABT1-96 (other)
VH: EVQLLESGGGLVQPGGSLRLSCAASGFTFNQYNMFWVRQAPGKGLEWVSVISGSGRFTYYADSVKGRFTISRDNSKNTLYLQMNSLRAEDTAVYYCAKGWWRRDPPFDYWGQGTLVTVSS
notes: dAb, VH, to IL-1α; also called dAb ABT1-96
[10]
  MRC5 ND10: 3 nM
  MRC5 ND50: 11 nM
[13]
  Kd: 1.1 nM
  koff: 0.00039 s⁻¹
  kon: 370000 M⁻¹ s⁻¹

B15: ABT2-108-620x/ABT1-122 huIgG1/K wt (bispecific antibody, V domains shown)
VH: EVQLLESGGGLVQPGGSLRLSCAASGFTFAEESWMWVRQAPGKGLEWVSRIGQDGKNTYYREDVKGRFTISRDNSKNTLYLQMNSLRAEDTAVYYCAKYTGRIMGHHLFDYWGQGTLVTVSS
VL: DIQMTQSPSSLSASVGDRVTITCRASQPIWTELNWYQQKPGKAPKLLIYGSSSLQSGVPRFSGSGSGTDFTLTISSLQPEDFATYYCQQFAYFPATFGQGTKVEIKR
[2]
  IL-1α IC50: 150 nM
[3]
  IL-1β IC50: 0.05 nM
[9]
  MRC-5 IL-1β neutralization potency: ~0.05 nM

B16: ABT1-95 (other)
VL: DIQMTQSPSSLSASVGDRVTITCRASQPIHGNLRWYQQKPGKAPKLLIYNISNLQSGVPSRFSGSGSGTDFTLTISSLQPEDFATYYCQQGYRWPVTFGQGTKVEIKR
notes: dAb, Vκ, to IL-1α; also called dAb ABT1-95
[10]
  MRC5 ND10: 150 nM
  MRC5 ND50: 700 nM
[14]
  Kd: 200 nM
[15]
  Kd: 45 nM
  koff: 0.022 s⁻¹
  kon: 490000 M⁻¹ s⁻¹

B17: ABT2-108-538x/ABT1-95-15 huIgG1/K wt (bispecific antibody, V domains shown)
VH: B15 VH with E31D, S33G, W34M, G52T, Q53Y, D54S, R61A, E62D, D63S, M104L
VL: B4 VL with K27Q, G29I, M33L, V51S, L89Q, P96V
notes: hu IgG1/K wt
[4]
  MRC5 IL-1α: 8 nM
[5]
  MRC5 IL-1β: 0.042 nM
[6]
  IC50: 0.54 nM
[7]
  IC50: 0.071 nM

B18: ABT1-95-1 (other)
chain: B16 VL with Y87H
[14]
  Kd: 40 nM
[16]
  Kd: 20 to 42 nM

B19: ABT2-108-620x/ABT1-95-15 huIgG1/K wt (bispecific antibody, V domains shown)
VH: B15 VH
VL: B4 VL with K27Q, G29I, M33L, V51S, L89Q, P96V
[17]
  MRC-5 IL-1a inhibition assay EC50: 5.07 nM
[2]
  IL-1α IC50: 5 nM
[3]
  IL-1β IC50: 0.04 nM

B20: ABT1-86 (other)
VH: EVQLLESGGGLVQPGGSLRLSCAASGFTFDRYIMAWVRQAPGKGLEWVSSITPSGAATYYADSVKGRFTISRDNSKNTLYLQMNSLRAEDTAVYYCAEEPADRYSTWTFDYWGQGTLVTVSS
notes: dAb, VH, to IL-1α
[10]
  MRC5 ND10: < 200 nM
  MRC5 ND50: 900 nM
[18]
  Kd: 110 nM
  koff: 0.09 s⁻¹
  kon: 820000 M⁻¹ s⁻¹

B21: ABT1-95-2 (other)
VL: DIQMTQSPSSLSASVGDRVTITCRASQPIHGNLRWYQQKPGKAPKLLIYSSSYLQSGVPSRFSGSGSGTDFTLTISSLQPEDFATYYCQQGYRWPVTFGQGTKVEIK
notes: dAb, Vκ, to IL-1α
[14]
  Kd: 40 nM
[16]
  Kd: 32 to 42 nM
